Laboratory results reported in paper PMC7610691 (Nature structural & molecular biology, 2020).

Target: T1, Smc2 (S. cerevisiae condensin subunit) (S. cerevisiae, UniProt P38989 1-1170)
T1 sequence: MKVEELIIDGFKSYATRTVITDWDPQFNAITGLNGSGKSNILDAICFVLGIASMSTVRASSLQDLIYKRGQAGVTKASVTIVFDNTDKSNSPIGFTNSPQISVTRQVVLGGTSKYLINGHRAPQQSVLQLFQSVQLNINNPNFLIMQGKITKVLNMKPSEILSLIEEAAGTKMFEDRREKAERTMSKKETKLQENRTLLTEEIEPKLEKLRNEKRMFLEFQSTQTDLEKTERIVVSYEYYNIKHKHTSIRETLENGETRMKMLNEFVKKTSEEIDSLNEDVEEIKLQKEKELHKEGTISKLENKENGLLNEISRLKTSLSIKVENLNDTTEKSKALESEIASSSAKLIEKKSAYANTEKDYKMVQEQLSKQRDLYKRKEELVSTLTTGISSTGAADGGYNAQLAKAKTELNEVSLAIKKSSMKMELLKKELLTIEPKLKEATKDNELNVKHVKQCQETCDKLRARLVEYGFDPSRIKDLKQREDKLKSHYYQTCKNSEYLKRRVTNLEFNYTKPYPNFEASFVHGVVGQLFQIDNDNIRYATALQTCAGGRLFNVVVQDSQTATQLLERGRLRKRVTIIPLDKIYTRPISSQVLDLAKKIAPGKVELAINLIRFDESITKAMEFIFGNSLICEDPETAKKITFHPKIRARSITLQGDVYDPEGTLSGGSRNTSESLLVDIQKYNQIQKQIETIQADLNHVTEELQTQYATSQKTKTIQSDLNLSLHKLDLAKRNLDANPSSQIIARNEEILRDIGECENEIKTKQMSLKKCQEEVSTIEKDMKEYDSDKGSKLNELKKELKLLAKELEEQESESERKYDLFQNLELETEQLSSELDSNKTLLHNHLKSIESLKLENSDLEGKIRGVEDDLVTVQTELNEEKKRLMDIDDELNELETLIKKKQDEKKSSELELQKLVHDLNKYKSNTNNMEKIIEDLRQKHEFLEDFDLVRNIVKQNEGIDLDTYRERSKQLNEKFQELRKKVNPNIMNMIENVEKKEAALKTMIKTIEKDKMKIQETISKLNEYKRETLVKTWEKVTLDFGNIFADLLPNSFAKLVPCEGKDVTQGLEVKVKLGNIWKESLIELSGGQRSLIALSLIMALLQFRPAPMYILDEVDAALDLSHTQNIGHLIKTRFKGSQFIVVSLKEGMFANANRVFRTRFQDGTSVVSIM
Assay: cryo-EM structure

binding result: binds
B1: Ycg1 (S. cerevisiae condensin HEAT-repeat subunit) (natural protein)
chain: MQDPDGIDINTKIFNSVAEVFQKAQGSYAGHRKHIAVLKKIQSKAVEQGYEDAFNFWFDKLVTKILPLKKNEIIGDRIVKLVAAFIASLERELILAKKQNYKLTNDEEGIFSRFVDQFIRHVLRGVESPDKNVRFRVLQLLAVIMDNIGEIDESLFNLLILSLNKRIYDREPTVRIQAVFCLTKFQDEEQTEHLTELSDNEENFEATRTLVASIQNDPSAEVRRAAMLNLINDNNTRPYILERARDVNIVNRRLVYSRILKSMGRKCFDDIEPHIFDQLIEWGLEDRELSVRNACKRLIAHDWLNALDGDLIELLEKLDVSRSSVCVKAIEALFQSRPDILSKIKFPESIWKDFTVEIAFLFRAIYLYCLDNNITEMLEENFPEASKLSEHLNHYILLRYHHNDISNDSQSHFDYNTLEFIIEQLSIAAERYDYSDEVGRRSMLTVVRNMLALTTLSEPLIKIGIRVMKSLSINEKDFVTMAIEIINDIRDDDIEKQEQEEKIKSKKINRRNETSVDEEDENGTHNDEVNEDEEDDNISSFHSAVENLVQGNGNVSESDIINNLPPEKEASSATIVLCLTRSSYMLELVNTPLTENILIASLMDTLITPAVRNTAPNIRELGVKNLGLCCLLDVKLAIDNMYILGMCVSKGNASLKYIALQVIVDIFSVHGNTVVDGEGKVDSISLHKIFYKVLKNNGLPECQVIAAEGLCKLFLADVFTDDDLFETLVLSYFSPINSSNEALVQAFAFCIPVYCFSHPAHQQRMSRTAADILLRLCVLWDDLQSSVIPEVDREAMLKPNIIFQQLLFWTDPRNLVNQTGSTKKDTVQLTFLIDVLKIYAQIEKKEIKKMIITNINAIFLSSEQDYSTLKELLEYSDDIAENDNLDNVSKNALDKLRNNLNSLIEEINERSETQTKDENNTANDQYSSILGNSFNKSSNDTIEHAADITDGNNTELTKTTVNISAVDNTTEQSNSRKRTRSEAEQIDTSKNLENMSIQDTSTVAKNVSFVLPDEKSDAMSIDEEDKDSESFSEVC
